For this assay, the target named is Human TCTP (translationally controlled tumor protein) (human) (UniProt P13693). The experiment in a line: SPR, Biacore 8K, human TCTP immobilised on CM5 chip, antibody as analyte, 1:1 model.

The term Kd denotes the equilibrium constant for the complex coming apart. Low readings indicate higher affinity, high ones lower affinity.

Human TCTP (translationally controlled tumor protein) (human), sequence (P13693 whole entry): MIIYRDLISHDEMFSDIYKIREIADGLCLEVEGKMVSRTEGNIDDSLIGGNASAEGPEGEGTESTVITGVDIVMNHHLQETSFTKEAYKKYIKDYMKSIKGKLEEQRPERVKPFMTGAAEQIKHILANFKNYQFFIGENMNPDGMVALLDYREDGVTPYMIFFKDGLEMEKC

B1: 55F3 (antibody, from another filing, V domains shown)
VH: DVQLQESGPGLVKPSQSLSLTCTATGYSIASDYAWNWIRQFPGNKLEWMGYINYSGSTGYNPSLKSRISITRDTSKNQFFLQLNSVTTEDTATYYCARFEAGYWGQGTTLTVSS
VL: DIKMTQSPSSMSASLGERVTITCKASQDINRYLSWFQQKPGKSPKTLIYRANRLVDGVPSRFSGSGSGQDYSLTISSLEYGDMGIYYCLQYNEFPLTFGAGTKLELKR
The molecule B1 gave a Kd of 263 nM.

The record behind these values is patent US20250388694A1.
